{"source": "paper PMC11150925", "substrate": "[H][C@]12C[C@]([H])(OO1)[C@H](C/C=C\\CCCC(=O)O)[C@H]2/C=C/[C@@H](O)CCCCC", "assay": "purified protein", "conditions": "PGD2 synthase reaction; 2 mM GSH fixed (saturating); PGH2 0.08-40 μM"}
{"protein": "rCsGST-σ1 (Clonorchis sinensis) (protein) MADEHYTLFYFQFRGRAEAIRMILHANGVHFKDERFTMNEWPERRNQIPGSRVPLLQVKKNKTHEVANYVESMAIARMLAKRFHMMGDSEEEYYRVERMIGQCADLDKEFYTAFFAAADQKEEMLKKSMREAVPKMLDLISKSISESGGKFAAGDKVTLGDICLLTSMDHVRKHDPEFLGKHYPKLLVLEQEVLKAKPKLAEYIRTRPETPL", "values": [{"measurement": "Km", "result": 92.1, "unit": "µM"}, {"measurement": "kcat", "result": 451, "unit": "s⁻¹"}, {"measurement": "kcat/Km", "result": "4.9e+06", "unit": "M⁻¹ s⁻¹"}]}
{"protein": "rCsGST-σ3 (Clonorchis sinensis) (protein) MSGEKYKLYYFPFRARGEVIRMVLHAAGVPFDDERIPMDDWPKRKSEIPGGRMPVLQVIDPDKPDTPKNFVEGMAIARMLAKRFDLMDDTEEGYYNTERMIGECEDVFKEFRSVFLSPADKKEELLKEAMETSIPKQLDLISKSLSESAGKFVAGCKVTLGDLCLLACLDHVDKSDPEFLKDKYPKLLEWREEVLKEKPKLADYIKSRPDTPF", "values": [{"measurement": "Km", "result": 30.2, "unit": "µM"}, {"measurement": "kcat", "result": 90.7, "unit": "s⁻¹"}, {"measurement": "kcat/Km", "result": "3e+06", "unit": "M⁻¹ s⁻¹"}]}
{"protein": "rCsGST-μ1 (Clonorchis sinensis) (protein) MAPVLGYWKIRGLAQPIRLLLEYVGDSYEEHSYGRCDGEKWQNDKHNLGLELPNLPYYKDGNFSLTQSLAILRYIADKHNMIGNTPVERAKISMIEGGLVDLRAGVSRIAYQETFVCIVSTFCLSHTSQEQLKVPYLQQLPSTLRMWSQFLGNNSYLHGSTPTHLDFMFYEALDVIRYLDPTSVEAFPNLMQFIHRIEALPNIKAFMESDRFIKWPLNGWSAYFGGGDAPPK", "values": [{"measurement": "Km", "result": 4.9, "unit": "µM"}, {"measurement": "kcat", "result": 12.5, "unit": "s⁻¹"}, {"measurement": "kcat/Km", "result": "2.6e+06", "unit": "M⁻¹ s⁻¹"}]}
{"protein": "rCsPGDS1 (Clonorchis sinensis) (protein) MSQYKLTYFNLRGRAEPIRMVLIISGTPFEDCRIEVSDWPSKKSTIPGGKLPILEVTSPCGKKTLMTESMATARYLAKQHNLMGATDEDYYKIEKTIGECGDLHDLVYKIARAPDAEKPKLIEELKKLENAPRLLNLMSETLKSNPSGFVAGEKVSLGDIALLCTLDQFESVYPGFLKENYPIFANHREHIMELQPKLAEHIKTRPTTIV", "values": [{"measurement": "Km", "result": 21.0, "unit": "µM"}, {"measurement": "kcat", "result": 90.6, "unit": "s⁻¹"}, {"measurement": "kcat/Km", "result": "4.3e+06", "unit": "M⁻¹ s⁻¹"}]}
